# Data as given in US20020094516.
# Legend:
# [1] = test system: T1, phiC31 integrase mutant 1C1 (Phage phiC31); assay: cell_activity; details: human 293 cells, attB plasmid integration into genome; integration at psiA shown by PCR
# T1 sequence: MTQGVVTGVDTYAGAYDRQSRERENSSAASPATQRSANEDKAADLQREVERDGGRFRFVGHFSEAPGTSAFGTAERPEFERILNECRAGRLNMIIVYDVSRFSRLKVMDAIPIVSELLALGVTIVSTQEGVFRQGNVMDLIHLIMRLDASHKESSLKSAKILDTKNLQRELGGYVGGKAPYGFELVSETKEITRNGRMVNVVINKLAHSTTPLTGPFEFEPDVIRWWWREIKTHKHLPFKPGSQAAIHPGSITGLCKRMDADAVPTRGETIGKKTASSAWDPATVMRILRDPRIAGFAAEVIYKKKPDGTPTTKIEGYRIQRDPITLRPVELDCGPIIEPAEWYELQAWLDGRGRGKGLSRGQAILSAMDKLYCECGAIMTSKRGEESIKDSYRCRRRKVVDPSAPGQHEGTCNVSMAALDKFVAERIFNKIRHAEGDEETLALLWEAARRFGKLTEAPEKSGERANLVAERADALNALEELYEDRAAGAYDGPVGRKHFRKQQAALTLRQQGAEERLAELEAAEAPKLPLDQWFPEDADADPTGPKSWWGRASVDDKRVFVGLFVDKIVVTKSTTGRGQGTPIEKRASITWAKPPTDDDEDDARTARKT
# [2] = test system: T2, phiC31 integrase wild-type (Phage phiC31); assay: cell_activity; details: human 293 cells, attB plasmid integration into genome, G418 selection
# T2 sequence: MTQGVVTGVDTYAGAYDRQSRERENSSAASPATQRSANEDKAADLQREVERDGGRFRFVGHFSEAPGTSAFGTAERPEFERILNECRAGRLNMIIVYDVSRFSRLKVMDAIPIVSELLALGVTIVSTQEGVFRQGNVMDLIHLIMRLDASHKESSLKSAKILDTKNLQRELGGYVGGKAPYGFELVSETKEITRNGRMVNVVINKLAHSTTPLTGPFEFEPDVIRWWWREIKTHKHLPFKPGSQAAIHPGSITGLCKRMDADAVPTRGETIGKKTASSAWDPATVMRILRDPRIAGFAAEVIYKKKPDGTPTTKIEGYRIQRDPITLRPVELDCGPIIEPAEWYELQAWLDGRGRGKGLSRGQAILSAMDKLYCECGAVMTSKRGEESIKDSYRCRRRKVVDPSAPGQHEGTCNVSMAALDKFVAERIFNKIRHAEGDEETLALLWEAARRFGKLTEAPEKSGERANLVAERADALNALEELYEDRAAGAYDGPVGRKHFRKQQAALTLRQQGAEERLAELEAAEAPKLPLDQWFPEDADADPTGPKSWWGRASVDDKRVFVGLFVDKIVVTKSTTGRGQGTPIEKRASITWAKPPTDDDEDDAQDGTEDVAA
sequence,measurement,setting,value
CGATGTAGGTCACGGTCTCGAAGCCGCGGTGCGGGTGCCAGGGCGTGCCCTTGGGCTCCCCGGGCGCGTACTCCACCTCACCCATCTGGTCCATCATGATGAACGGGTCGAGGTGGCGGTAGTTGATCCCGGCGAACGCGCGGCGCACCGGGAAGCCCTCGCCCTCGAAACCGCTGGGCGCGGTGGTCACGGTGAGCACGGGACGTGCGACGGCGTCGGCGGGTGCGGATACGCGGGGCAGCGTCAGCGGGTTCTCGACGGTCACGGCGGGCATGTCGA (double strand) [phiC31 attB (full length)],integration activity (fold colonies vs wild-type integrase),[1],2
same,activity (fold colonies over background),[2],> 10
